The text below walks through data of patent publication US20260207767A1 (ANAVEON, published 2026).

Test [1] concerns the target T1, hPD-1 (ECD-His, produced in house) (human, UniProt Q15116 25-170).
T1 construct: extracellular domain; also called coated hPD-1
Kind of test: binding ELISA. Here is the method: 60 nM of hPD-1 (ECD-His, produced in house) was coated on a Maxisorp plate (Nunc) overnight at 4° C. and blocked with 5% BSA in PBS. […] Absorbance signal after adding TMB was read with a plate reader (Spectramax ID3) at 450 nm. EC50 values were determined by blotting absorbance against concentration (Graphpad Prism, sigmoidal curve fit, 4 PL, X-axis is log).
For orientation: An ELISA detects its analyte on a solid surface through an enzyme-linked reagent.

Test [2] has as its target T2, IL-2R CD122-CD132 on Jurkat-PD1+CD122+ cells (UniProt P14784 27-551; P31785 23-369).
T2 sequence (looked up) 1: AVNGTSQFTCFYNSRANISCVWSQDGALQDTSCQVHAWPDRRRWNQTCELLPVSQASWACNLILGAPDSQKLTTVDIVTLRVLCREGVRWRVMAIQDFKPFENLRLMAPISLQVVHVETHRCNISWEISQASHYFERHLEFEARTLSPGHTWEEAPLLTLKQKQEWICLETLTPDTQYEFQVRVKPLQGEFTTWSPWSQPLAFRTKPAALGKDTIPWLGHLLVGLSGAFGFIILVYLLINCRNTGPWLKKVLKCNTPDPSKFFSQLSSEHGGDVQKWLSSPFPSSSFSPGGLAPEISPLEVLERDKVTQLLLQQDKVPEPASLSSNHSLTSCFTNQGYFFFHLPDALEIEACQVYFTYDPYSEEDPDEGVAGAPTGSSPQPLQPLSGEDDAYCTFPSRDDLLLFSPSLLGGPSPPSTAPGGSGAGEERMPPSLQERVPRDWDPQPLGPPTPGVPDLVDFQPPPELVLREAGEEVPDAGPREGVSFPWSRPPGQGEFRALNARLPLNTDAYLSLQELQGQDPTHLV
T2 sequence (looked up) 2: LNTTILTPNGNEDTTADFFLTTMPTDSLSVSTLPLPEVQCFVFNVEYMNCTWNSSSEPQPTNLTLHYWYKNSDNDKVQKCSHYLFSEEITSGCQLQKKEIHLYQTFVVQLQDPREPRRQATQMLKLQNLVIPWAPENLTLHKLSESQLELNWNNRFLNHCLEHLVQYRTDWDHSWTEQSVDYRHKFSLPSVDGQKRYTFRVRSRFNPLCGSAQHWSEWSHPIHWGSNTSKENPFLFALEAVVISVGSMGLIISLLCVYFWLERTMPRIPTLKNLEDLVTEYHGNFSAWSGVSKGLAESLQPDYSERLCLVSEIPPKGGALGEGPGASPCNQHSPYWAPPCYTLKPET
Briefly: cell-based or functional assay.

Test [3] addresses T3, human PD-1 expressed on cells (human, UniProt Q15116 25-288).
T3 construct: whole, on cells; cell line named under assay; also called CHO-S hPD-1; Raji PD-1
Briefly: flow cytometry, HEK293 huPD1.

Test [4] addresses T4, cynomolgus PD-1 expressed on cells (cynomolgus monkey, UniProt B0LAJ3 25-288).
T4 construct: also called CHO-S Cyno-PD-1; 293:cyPD1
Briefly: flow cytometry, HEK293 cyPD1.

The next test deals with T5, hPD-1 His-tagged (human, UniProt Q15116 25-167).
T5 construct: also called recombinant hPD-1 (AcroBio)
T5 sequence (Q15116 25-167 limits assumed): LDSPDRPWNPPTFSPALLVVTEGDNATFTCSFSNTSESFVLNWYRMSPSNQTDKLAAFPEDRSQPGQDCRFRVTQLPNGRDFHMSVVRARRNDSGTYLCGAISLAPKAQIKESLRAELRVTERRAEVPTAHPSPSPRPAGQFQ
Kind of test: BLI (legend: SPR), Ab on sensor.

The target of test [5] is T6, cynoPD-1 His (AcroBiosystems PD1-C5223) (cynomolgus monkey, UniProt B0LAJ3 25-170).
T6 construct: also called cPD-1; cynomolgus PD-1 His-tagged
T6 sequence (B0LAJ3 entry or part of it limits assumed): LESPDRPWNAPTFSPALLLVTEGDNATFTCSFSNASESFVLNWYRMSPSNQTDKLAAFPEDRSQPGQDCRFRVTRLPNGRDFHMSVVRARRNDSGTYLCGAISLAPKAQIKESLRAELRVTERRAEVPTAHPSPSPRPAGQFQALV
Briefly: BLI (legend: SPR), Ab on sensor.

Test [6] concerns the target T7, recombinant human IL-2 (human, UniProt P60568 21-153).
T7 construct: bought (BLI: Acro Biosystems IL2-H4113); also called rhIL-2; hIL-2
Kind of test: ELISA, coated IL-2. As to the method: (§1) Binding to IL-2 was first tested by ELISA using a serial dilution of antibodies on coated IL-2. Recombinant human IL-2 was coated on Maxisorp ELISA plates (Invitrogen, 44-2404-21) at 5 μg/ml, 4° C. overnight. […] The antibodies were detected with anti-human IgG-Peroxidase (Sigma, A0170). After addition and blockade of the chemiluminescent substrate, absorption was read (A₄₅₀-A₅₇₀ at plate reader, Spectramax 03). EC₅₀ values were obtained by plotting Absorbance vs. log(Concentration) and sigmoidal 4-PL fitting using GraphPad Prism (Table 1). […] Antibodies were immobilized on amine reactive (2nd Generation) sensors (ForteBio, 18-5092). Association (600s) and dissociation (900s) of a dilution series of recombinant IL-2 (Acro Biosystems, IL2-H4113) were measured on the antibody-coated biosensors on an Octet-System (Octet RED, ForteBio). KD values were obtained by fitting the kinetics data with the ForteBio Data Analysis Software (8.2).

Test [7] concerns the target T7, recombinant human IL-2. Kind of test: BLI, antibody immobilized. Here is the method: as §1
The target of test [8] is T8, CD122/CD132 complex (His-tagged, Acro Biosystem ILG-H5283) (UniProt P14784 27-239; P31785 23-254, limits assumed).
T8 construct: bought; also called dimeric IL-2 receptor
T8 sequence (looked up) 1: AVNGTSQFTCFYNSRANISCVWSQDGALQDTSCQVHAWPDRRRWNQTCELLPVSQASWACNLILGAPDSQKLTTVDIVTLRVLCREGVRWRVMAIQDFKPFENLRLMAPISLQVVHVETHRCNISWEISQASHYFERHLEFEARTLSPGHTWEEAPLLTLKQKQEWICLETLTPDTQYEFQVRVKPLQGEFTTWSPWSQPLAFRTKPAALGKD
T8 sequence (looked up) 2: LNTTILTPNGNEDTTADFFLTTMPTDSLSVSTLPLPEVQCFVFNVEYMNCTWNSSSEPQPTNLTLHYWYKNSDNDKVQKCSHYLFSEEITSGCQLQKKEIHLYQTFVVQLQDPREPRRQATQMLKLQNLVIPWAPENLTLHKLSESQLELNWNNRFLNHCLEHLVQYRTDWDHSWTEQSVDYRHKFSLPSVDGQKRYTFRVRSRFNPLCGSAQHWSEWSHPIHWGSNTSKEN
Kind of test: SPR, CD122/CD132 captured on NTA chip. An excerpt:
Binding to the CD122/CD132 complex (His-tagged, Acro Biosystem, Cat #ILG-H5283) of one representative anti-IL-2 antibody/IL-2 fusion (QTY065) was additionally assessed by SPR (BIAcore 3000, v4.1.2; GE Healthcare) and compared to Proleukin. CD122/CD132 was captured on an NTA sensor chip (GE Healthcare). Proleukin or QTY065 Fab were used as analytes.

Test [9] addresses T7, recombinant human IL-2. Briefly: BLI, antibody immobilized; BLI: antibody immobilized on amine reactive sensors, rhIL-2 in solution as a dilution series. As to the method: as §1
(In BLI a coated tip is dipped into the sample, and binding shifts an interference pattern.)

Test [10] concerns the target T9, recombinant hPD-1 (construct not stated) (human, UniProt Q15116 25-167, limits assumed).
T9 construct: also called huPD-1; Human PD1
Kind of test: BLI, supernatants. The text has this:
In order to remove an N-glycosylation site present in the CDR-L1, mutations were inserted in the CDR-L1 of 21A08. The first asparagine ([…], N) in CDR-L1, was replaced by a serine (Ser, S), Glutamine (Gln, Q), or Alanine (Ala, A).

T7 sequence (P60568 21-153 limits assumed): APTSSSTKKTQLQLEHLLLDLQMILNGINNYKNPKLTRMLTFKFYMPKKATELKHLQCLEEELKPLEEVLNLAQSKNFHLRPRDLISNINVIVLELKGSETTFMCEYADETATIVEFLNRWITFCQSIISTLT
T9 sequence (Q15116 25-167 limits assumed): as the sequence (Q15116 25-167 limits assumed) above
T4 sequence (B0LAJ3 entry or part of it limits assumed): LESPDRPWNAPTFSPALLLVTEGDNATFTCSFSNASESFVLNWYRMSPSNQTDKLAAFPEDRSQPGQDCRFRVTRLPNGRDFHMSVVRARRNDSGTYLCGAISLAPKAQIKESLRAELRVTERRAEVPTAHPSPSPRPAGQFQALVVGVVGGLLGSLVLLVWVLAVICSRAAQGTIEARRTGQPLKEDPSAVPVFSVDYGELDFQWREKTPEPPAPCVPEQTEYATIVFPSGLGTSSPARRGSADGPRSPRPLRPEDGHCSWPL
T3 sequence (Q15116 25-288): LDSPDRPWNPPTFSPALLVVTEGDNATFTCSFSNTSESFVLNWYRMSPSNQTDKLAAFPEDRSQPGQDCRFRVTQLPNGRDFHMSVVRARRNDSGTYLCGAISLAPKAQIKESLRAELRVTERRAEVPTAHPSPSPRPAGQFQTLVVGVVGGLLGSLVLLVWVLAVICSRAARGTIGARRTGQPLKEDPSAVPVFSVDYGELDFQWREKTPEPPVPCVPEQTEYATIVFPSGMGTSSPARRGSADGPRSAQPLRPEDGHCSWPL
T1 sequence (Q15116 25-170): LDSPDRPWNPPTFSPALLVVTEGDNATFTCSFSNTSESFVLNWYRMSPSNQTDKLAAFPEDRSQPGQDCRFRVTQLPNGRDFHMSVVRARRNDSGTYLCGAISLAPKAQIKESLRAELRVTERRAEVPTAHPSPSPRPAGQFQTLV

B1: PXU588 (bispecific antibody, human IgG1, kappa, L234A L235A)
heavy 1: EVQLLESGGGLVQPGGSLRLSCAASGFTFSINAMTWVRQAPGKGLEWVSTISGSGFSTYYADSLKGRFTISRDNSKNTLYLQMNSLRAEDTAVYYCAKEVYGDYWGQGTLVTVSSASVAAPSVFIFPPSDEQLKSGTASVVCLLNNFYPREAKVQWKVDNALQSGNSQESVTEQDSKDSTYSLSSTLTLSKADYEKHKVYACEVTHQGLSSPVTKSFNRGECDKTHTCPPCPAPEAAGGPSVFLFPPKPKDTLMISRTPEVTCVVVDVSHEDPEVKFNWYVDGVEVHNAKTKPREEQYNSTYRVVSVLTVLHQDWLNGKEYKCKVSNKALAAPIEKTISKAKGQPREPQVYTLPPSREEMTKNQVSLTCLVKGFYPSDIAVEWESNGQPENNYKTTPPVLDSDGSFFLTSKLTVDKSRWQQGNVFSCSVMHEALHNHYTQKSLSLSPGK
light 1: RSVLTQPPSASGTPGQRVSISCSGASSNIGSSSVFWYQQLPGTAPKLLIYSNNQRPSGVPDRFSGSKSGTSASLAISGLRSEDEADYYCAAWDDSLSIWVFGGGTKLTVLSSASTKGPSVFPLAPSSKSTSGGTAALGCLVKDYFPEPVTVSWNSGALTSGVHTFPAVLQSSGLYSLSSVVTVPSSSLGTQTYICNVNHKPSNTKVDKRVEPKSC
heavy 2: EVQLVQSGAEVKKPGESLKISCKGSGYAFTNYLIEWVRQMPGKGLEWMGVINPGSGGTNYNEKFKGQVTISADKSISTAYLQWSSLKASDTAMYYCARWRGEGYYAYFDVWGQGTTVTVSSASTKGPSVFPLAPSSKSTSGGTAALGCLVKDYFPEPVTVSWNSGALTSGVHTFPAVLQSSGLYSLSSVVTVPSSSLGTQTYICNVNHKPSNTKVDKRVEPKSCDKTHTCPPCPAPEAAGGPSVFLFPPKPKDTLMISRTPEVTCVVVDVSHEDPEVKFNWYVDGVEVHNAKTKPREEQYNSTYRVVSVLTVLHQDWLNGKEYKCKVSNKALAAPIEKTISKAKGQPREPQVYTLPPSREEMTKNQVSLYCLVKGFYPSDIAVEWESNGQPENNYKTTPPVLDSDGSFFLYSKLTVDKSRWQQGNVFSCSVMHEALHNHYTQKSLSLSPGK
light 2: not shown
notes: also called IgG CrossMab 21A08A p2 x QTY065
B1: the binding result in test [1] is given as “no binding”. Moreover, in test [2], the “EC50 value for pSTAT5 induction, Jurkat-PD-1+CD122+ cells” value worked out at 5.37 nM.

B2: 56H02 (antibody, V domains shown)
VH: QVQLVQSGAEVKKPGASVKVSCKASGYTFTSYFMHWVRQAPGQGLEWMGLINPDGGNTDYAQKFQGRVTMTRDTSTSTVYMELSSLRSEDTAVYYCARDGNYYDSSGYYYPDAFDIWGQGTMVTVSS
VL: SSELTQDPAVSVALGQTVRITCQGDSLRRFYASWYQQKPGQAPVIVIYGKDNRPSGTPDRFSGSTSGNTASLTITGAQAEDEADYYCNSRDSSGTHVVFGGGTKLTVL
notes: used with CH1,2,3 and corresponding CL
A word on the EC50: it is the midpoint of the concentration-response curve. In general, Kd refers to the equilibrium constant for the complex coming apart. As a reminder, the koff is the first-order rate constant of dissociation. In general, kon refers to the second-order rate constant of association. Regarding B2, the EC50 in [3] was 0.0921 nM; in [4] it was 0.0881 nM. In addition, the Kd with hPD-1 His-tagged was 0.228 nM; in [5], 0.262 nM. For the same molecule, the koff with hPD-1 His-tagged turned out to be 3.79e-05 s⁻¹; in test [5] it was 3.67e-05 s⁻¹. Besides, the on-rate constant (kon) in the test with hPD-1 His-tagged worked out at 166000 M⁻¹ s⁻¹; in test [5], 140000 M⁻¹ s⁻¹.

B3: Antibody A (antibody, human IgG1, kappa, N297A, V domains shown)
VH: EVQLVQSGAEVKKPGESLKISCKGSGYAFTNYLIEWVRQMPGKGLEWMGVINPGSGGTNYNEKFKGQVTISADKSISTAYLQWSSLKASDTAMYYCARWRGEGYYAYFDVWGQGTTVTVSS
VL: AIRLTQSPSSFSASTGDRVTITCKASQSVDYQGDSYMNWYQQKPGKAPKLLIYAASNLESGVPSRFSGSGSGTDFTLTISSLQSEDFATYYCQQSNEDPYTFGGGTKVEIKR
notes: humanized from antibody NARA1
Take B3: the EC50 in the test with recombinant human IL-2 [6] was found to be 0.37 nM. Further, the equilibrium dissociation constant (Kd) with recombinant human IL-2 [7] is 2.1 nM.

B4: QTY065 Fab (Fab)
heavy: B3 VH
light: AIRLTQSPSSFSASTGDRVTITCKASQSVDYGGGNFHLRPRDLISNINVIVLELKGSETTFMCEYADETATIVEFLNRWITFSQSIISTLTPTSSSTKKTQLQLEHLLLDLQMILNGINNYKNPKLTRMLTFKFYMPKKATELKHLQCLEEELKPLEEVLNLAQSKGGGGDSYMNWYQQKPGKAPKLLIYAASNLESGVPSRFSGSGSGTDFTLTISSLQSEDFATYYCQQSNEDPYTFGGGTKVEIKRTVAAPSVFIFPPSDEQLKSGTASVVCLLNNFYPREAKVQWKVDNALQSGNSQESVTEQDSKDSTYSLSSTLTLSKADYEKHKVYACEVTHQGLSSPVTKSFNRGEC
notes: also called Fab fragment of QTY065; not shown: CH1
In test [8], B4 registered a Kd of 0.32 nM.

B5: Antibody B (antibody, human IgG1, kappa, V domains shown)
VH: QVQLVESGGGVVQPGRSLRLSCAASGYTFSSYLIEWVRQAPGKGLEWVAVINPGSGGTNYADSVKGRFTISADKSKNTAYLQMNSLRAEDTAVYYCARWRGDGYYAYFDVWGQGTTVTVSS
VL: EIVLTQSPATLSVSPGERATLSCRASQSVSYDGDSYMNWYQQKPGQAPRLLIYAASNLASGIPARFSGSGSGTEFTLTISSLQSEDAAVYYCQQSNEDPYTFGGGTKVEIKR
For B5, the Kd in the test with recombinant human IL-2 [9] turned out to be 270 nM.

B6: 21A08 (antibody, V domains shown)
VH: EVQLLESGGGLVQPGGSLRLSCAASGFTFSINAMTWVRQAPGKGLEWVSTISGSGFSTYYADSLKGRFTISRDNSKNTLYLQMNSLRAEDTAVYYCAKEVYGDYWGQGTLVTVSS
VL: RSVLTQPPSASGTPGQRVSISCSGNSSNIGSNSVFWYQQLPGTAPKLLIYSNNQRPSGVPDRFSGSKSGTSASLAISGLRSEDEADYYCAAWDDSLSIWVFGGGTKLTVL
notes: used with CH1,2,3 and CL(lambda); also called clone 21A08
As for B6, the EC50 in [3] amounted to 0.243 nM; in [4], 0.195 nM. Also, the Kd with hPD-1 His-tagged stood at 0.00927 nM; in test [5], 1.24 nM; in test [10], 2.17 nM. In addition, the off-rate constant (koff) in the test with hPD-1 His-tagged stood at 6.39e-07 s⁻¹; in [5], 8.25e-05 s⁻¹; in [10] it was 0.00014 s⁻¹. Besides, the kon in the test with hPD-1 His-tagged stood at 69000 M⁻¹ s⁻¹; in test [5] it was 66700 M⁻¹ s⁻¹.
